Measurements as given in the supplement of paper PMC10567573.

B1: MGC16075 (parent)
chain: AGSRQALSFEVPPCNYDPEKWIQ
B2: EHMT1 (parent)
chain: FHKDCASRVNNASYCPHCGEESSK

Variants of: B1
Experiment: protein stability index of a GFP-peptide fusion (GPS, HEK-293T) (PSI 1-6); higher = more stable
Details: c terminus: native
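Note: lentivirally expressed fusions sorted by FACS into six bins by GFP to DsRed ratio, PSI derived from sequencing read proportions per bin multiplied by bin number.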

Variant | protein stability index
N15L | 1.99
N15T | 1.64
D17T | 1.92
G2I | 2.37
K20H | 3.7
C14S | 2.56
P12W | 2.69
L7R | 2.5
N15A | 1.71
K20M | 2.69
S3D | 1.86
P18K | 1.79
Q5Y | 2.68
P12E | 2.14
G2Q | 2.2
P13M | 1.3
N15M | 1.84
I22H | 4.62
L7Y | 1.76
I22F | 4.43
S8Q | 1.26
A6S | 1.6
G2S | 1.75
Q5R | 1.84
L7F | 3.58

Variant | protein stability index
P18S | 1.78
P12I | 1.17
Q23M | 1.82
V11W | 2.04
G2D | 1.93
P18H | 1.84
W21I | 4.03
N15C | 2.23
P13D | 1.8
K20F | 3.49
S3W | 2.7
P12C | 2.41
G2L | 2.27
A6G | 1.03
F9C | 2.57
D17L | 1.81
E19A | 1.22
P13A | 1.43
Q5M | 1.72
N15G | 2.03
P12G | 1.37
I22N | 4.99
Q23G | 3.04
S8D | 2.32
L7W | 2.77

Variant | protein stability index
S8F | 2.92
C14Y | 2.23
W21P | 5.2
I22P | 4.72
P18R | 2.36
P18T | 1.82
V11D | 2.93
E10S | 2.44
V11H | 1.93
S3Y | 1.28
S8K | 2.09
E19W | 2.47
I22T | 4.85
K20T | 3.33
R4Y | 1.22
A6H | 1.71
P13Q | 2.03
V11K | 2.61
D17I | 2.17
P12M | 2.33
Q5A | 1.8
E19P | 2.28
E19Y | 2.07
D17N | 1.51
E19M | 1.52

Variant | protein stability index
Q23P | 4.37
I22C | 4.56
W21V | 2.88
P18V | 1.99
V11E | 2.07
C14Q | 2.05
A1H | 1.82
K20W | 3.58
Y16F | 1.68
F9I | 2.07
P12K | 1.73
G2R | 2.58
A6M | 2.98
W21A | 2.33
Q5P | 1.47
Q5W | 4.32
Y16C | 2.17
W21K | 3.53
S8V | 1.54
G2W | 1.68
S8N | 1.91
P18Q | 2.03
Q23W | 1.24
K20P | 4.17
E19G | 2.16

Variant | protein stability index
V11I | 2.6
Y16K | 1.61
E10H | 3.09
S3Q | 1.6
I22L | 3.92
I22Q | 4.78
E19Q | 2.72
P18F | 1.6
S3H | 2.44
E10N | 1.7
F9Y | 2
W21D | 3.28
C14L | 1.39
S8C | 2.6
L7D | 2.45
Q23F | 2.23
L7I | 2.07
F9L | 2.48
Y16I | 2.01
P12F | 2.92
R4W | 3.74
S8H | 2.05
P13K | 2.34
C14H | 2.1
K20G | 3.9

Variant | protein stability index
S8P | 1.91
D17Y | 2.15
V11C | 2.02
P18A | 1.62
F9R | 2.78
G2H | 2.4
I22V | 2.75
D17E | 2.07
I22M | 4.14
D17C | 1.29
E10C | 2.27
E10D | 2.6
D17W | 1.91
P12R | 1.81
C14A | 2.28
R4K | 1.72
Q23K | 1.91
K20R | 1.98
A1W | 3.29
P13E | 1.44
Q5E | 3.29
A6P | 1.56
A6L | 3.71
L7K | 1.82
E19K | 3.27

Variant | protein stability index
R4P | 2.77
F9E | 3.49
L7A | 2.09
A1R | 2.04
G2V | 1.97
W21Q | 2.83
D17H | 2.12
Y16S | 1.48
I22K | 4.72
C14R | 1.92
V11A | 2.52
C14N | 1.92
R4D | 2.41
Q23E | 1.97
F9V | 2.57
V11N | 1.68
S3P | 2.18
W21N | 2.42
F9T | 2.79
R4G | 1.39
P18M | 1.91
P13S | 2.66
Y16G | 3.5
F9M | 2.29
F9G | 3.14

Variant | protein stability index
G2Y | 2.51
P13R | 1.29
K20I | 2.46
Q5S | 1.48
K20Q | 4.32
D17F | 1.57
P13T | 1.99
L7S | 2.11
D17P | 1.74
V11R | 2
S8I | 1.59
P18W | 1.1
C14W | 1.56
F9A | 2.63
Q23Y | 2
S8R | 1.89
W21L | 2.17
I22E | 4.4
P18G | 2.41
Y16D | 2.52
C14T | 2.2
A1F | 3.97
R4A | 2.66
K20A | 3.93
N15F | 1.96

Variant | protein stability index
G2A | 1.77
I22W | 3.22
P18D | 1.93
Q5K | 1.3
N15K | 2.53
L7C | 2.75
Q5G | 2.03
P18I | 1.92
Q5D | 1.52
P13Y | 2.88
P18L | 2.72
C14M | 1.23
R4S | 2.21
R4H | 2.67
I22Y | 2.85
G2F | 2.77
E19H | 2.64
S3K | 2.32
F9P | 3.09
R4E | 1.83
S3C | 1.52
A1G | 1.68
F9S | 2.77
Q5H | 1.82
S3E | 1.28

Variant | protein stability index
P18Y | 1.87
A1M | 1.25
P13G | 2.1
C14G | 1.42
P12S | 1.71
N15P | 2.68
F9W | 2.5
S8G | 1.83
V11G | 1.63
A1L | 1.22
S3L | 1.93
W21R | 2.16
Y16A | 1.54
E10M | 2.56
Y16V | 2.47
P13I | 2.7
F9H | 2.86
Q23I | 2.43
R4L | 2.53
E10P | 2.3
R4F | 2.41
E10Y | 1.75
D17Q | 2.18
R4I | 2.7
S8W | 2.05

Variant | protein stability index
Y16E | 2.64
P13W | 1.98
F9Q | 3.05
S8T | 3.31
V11Q | 2.38
A1N | 2.23
V11M | 2.11
E10K | 1.67
I22A | 4.22
P12A | 1.79
V11Y | 3.25
P13H | 1.2
L7N | 2.72
P12T | 1.99
C14I | 1.59
Y16H | 1.46
P12Q | 2
W21F | 2.89
I22D | 4.97
K20D | 4.29
Y16P | 2.22
S3M | 1.92
S8A | 1.79
G2N | 2.37
R4M | 3.08

Variant | protein stability index
P13N | 1.27
N15S | 1.35
K20N | 3.71
D17S | 1.49
A6K | 2.47
A6V | 2.59
E19L | 3.01
P13L | 1.62
Q23N | 2.83
E10V | 1.08
E10R | 1.97
A6W | 3.24
L7V | 1.78
G2M | 2.88
W21H | 2.32
A6I | 3.05
A1P | 2.5
N15R | 2.62
I22G | 5.11
L7P | 1.26
N15H | 1.28
G2E | 1.48
E10Q | 1.23
Q23H | 2.55
V11L | 1.3

Variant | protein stability index
A1I | 1.9
L7Q | 2.57
Y16M | 2.03
E19I | 1.84
K20S | 3.77
C14K | 1.64
N15W | 2.14
Q5N | 1.82
P18E | 2.79
A1T | 2.09
A1E | 2.19
Q23V | 4.81
V11S | 1.84

Variants of: B2
Experiment: as above
Details: c terminus: a fixed tail appended

Variant | protein stability index
R8F | 2.35
Y14P | 3.9
E21D | 3.22
G19Q | 3.35
F1T | 4.43
C15L | 3.45
S23K | 3.16
E21A | 3.52
G19C | 3.59
H17W | 2.16
H2K | 4.17
V9H | 4.71
D4Q | 2.73
R8W | 1.91
C18T | 3.58
N11S | 3.08
E21N | 3.17
P16E | 3.94
C15A | 3.32
S13N | 3.6
G19Y | 3.91
